Reference: US20180118806A1 (MIT, published 2018)
Where “and” joins values, the source holds several entries; their conditions need not be identical. Equal values may be shown once.

Assays:
Rantes (CCL5) [1] = target: T1, Rantes (CCL5) (UniProt P13501 24-91); experiment: MST (FIG. 5)
T1 construct: In the yeast 2-hybrid screen the ligand construct is not described
T1 sequence (looked up): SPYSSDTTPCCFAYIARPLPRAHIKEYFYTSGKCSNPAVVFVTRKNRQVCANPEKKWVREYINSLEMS
Protocol: (§1) Each run of assay systematically measures 16 capillaries with identical concentration of a non-full length CCR5^QTY variant, but different concentrations of Rantes (Prospecbio http://www.prospecbio.com/Rantes/) with 2 duplicate measurements (Technical repeat 1 and 2).
(§2) Briefly, serial dilution of the target molecule Rantes was prepared in buffer to match the final buffer conditions in the reaction mix. The highest concentration of target was 6.0 μM, and the lowest 184.0 pM. About 5 μl of each dilution step were mixed with 5 μl of the fluorescent molecule—a partial water-soluble […] variant of CCR5 (e.g., CCR5-SZ218a). The final reaction mixture, which was filled in capillaries, contained a respective amount of target molecule (max. conc. 3.0 μM, min conc. 92.0 pM) and constant 5 nM fluorescent molecule.
(§3) The samples were analyzed on a Monolith NT.115 Pico at 25° C., with 12% LED power and 80% Laser power. No sticking of the fluorescent interaction partner to the capillary walls was indicated in the capillary scan.

Rantes (CCL5) [2] = target: T1, Rantes (CCL5); experiment: fluorescent MST (FIG. 5)
Protocol: as §1, §2, §3

Rantes (CCL5) [3] = target: T1, Rantes (CCL5); experiment: MST (MicroScale Thermophoresis), labelled CCR5QTY variant constant, Rantes titrated (axis 0.01-10000 nM); left panel, fits of Tech. 1 and Tech. 2
Protocol: as §1, §2, §3

Rantes (CCL5) [4] = target: T1, Rantes (CCL5); experiment: MST (MicroScale Thermophoresis), labelled CCR5QTY variant constant, Rantes titrated (axis 0.01-10000 nM); right panel, fits of Tech. 1 and Tech. 2
Protocol: as §1, §2, §3

Rantes (CCL5) [5] = target: T1, Rantes (CCL5); experiment: MST, run 2, technical repeat; run 2, first technical repeat
Protocol: as §1, §2, §3

Rantes (CCL5) [6] = target: T1, Rantes (CCL5); experiment: MST, run 3, technical repeat; run 3, first technical repeat
Protocol: as §1, §2, §3

Rantes (CCL5) [7] = target: T1, Rantes (CCL5); experiment: MST, run 2, technical repeat; run 2, second technical repeat
Protocol: as §1, §2, §3

Rantes (CCL5) [8] = target: T1, Rantes (CCL5); experiment: MST, run 3, technical repeat; run 3, second technical repeat
Protocol: as §1, §2, §3

Rantes (CCL5) [9] = target: T1, Rantes (CCL5); experiment: MST, run 1, technical repeat; dye-labelled variant at 5 nM, Rantes titrated (FIG. 7); run 1, first technical repeat
Protocol: as §1, §2, §3

Rantes (CCL5) [10] = target: T1, Rantes (CCL5); experiment: MST, run 1, technical repeat; dye-labelled variant at 5 nM, Rantes titrated (FIG. 7); run 1, second technical repeat
Protocol: as §1, §2, §3

Rantes (CCL5) [11] = target: T1, Rantes (CCL5); experiment: MST, run 3, LED power 15%, technical repeat
Protocol: as §1, §2

Rantes (CCL5) [12] = target: T1, Rantes (CCL5); experiment: MST, run 1, rounded value of the two technical repeats
Protocol: as §1, §2, §3

Rantes (CCL5) [13] = target: T1, Rantes (CCL5); experiment: MST, run 2, rounded value of the two technical repeats (FIG. 6)
Protocol: as §1, §2, §3

Rantes (CCL5) [14] = target: T1, Rantes (CCL5); experiment: MST, run 1, technical repeat; dye-labelled variant at 5 nM, Rantes titrated
Protocol: as §1, §2, §3

Rantes (CCL5) [15] = target: T1, Rantes (CCL5); experiment: MST, run 2, technical repeat; dye-labelled variant at 5 nM, Rantes titrated
Protocol: as §1, §2, §3

B1: SZ352a = CCR5QTY(352a) (receptor)
chain: MDYQVSSPIYDINYYTSEPCQKINVKQIAARQQPPQYSQTFTYGFTGNMQTTQTQINCKRLKSMTDIYLQNQAISDQYYQQTTPYWAHYAAAQWDFGNTMCQQQTGQYFTGYYSGTYYTTQQTTDRYLAVVHAVFALKARTTTYGTTTSTTTWTTATYASQPGTTYTRSQKEGLHYTCSSHFPYSQYQFWKNFQTLKITIQGQVQPQQTMVTCYSGTQKTLLRCRNEKKRHRAVRQTFTTMTTYYQYWAPYNTTQQLNTFQEFFGLNNCSSSNRLDQAMQVTETQGMTHCCTNPTIYAYVGEKFRNYLLVFFQKHIAKRFCKCCSIFQQEAPERASSVYTRSTGEQEISVGL
modifications: labelled with a dye in the MST assay (dye and site not stated for this variant)
notes: Full-length (352 aa) QTY variant of CCR5, used as control in MST; also called CC15-22; full-length (352 aa) CCR5^QTY variant
B1 was tested, and the Kd (Rantes (CCL5) [1]) was 28 to 32 nM, the Kd (Rantes (CCL5) [2]) was roughly 30 nM and the Kd (Rantes (CCL5) [3]) was roughly 28 nM. It also gave a Kd (Rantes (CCL5) [4]) of roughly 32 nM.

B2: SZ190b = CCR5QTY(190b) (receptor)
chain: MDYQVSSPIYDINYYTSEPCQKINVKQIAARLQPPQYSQTFTFGFTGNMQTTQTQINCKRLKSMTDIYLQNQAISDQFFQQTTPYWAPYNTVQQQNTFQEFFGLNNCSSSNRLDQAMQVTETQGMTHCCTNPTIYAFVGEKFRNYLLVFFQKHIAKRFCKCCSIFQQEAPERASSVYTRSTGEQEISVGL
modifications: labelled with the dye DY647P1 in the MST assay (site not stated)
notes: Partial QTY variant of CCR5, 190 aa; Dye-labelled in MST; in the yeast 2-hybrid screen the fusion partner is not described; also called 5NA-17: Contig1; CCR5_SZ190b DY647P1
For B2, the Kd (Rantes (CCL5) [5]) was 27.4 nM, the Kd (Rantes (CCL5) [6]) was 32 nM and the Kd (Rantes (CCL5) [7]) was 56.5 nM. The Kd (Rantes (CCL5) [8]) was 54.9 nM, the Kd (Rantes (CCL5) [9]) was 46.5 nM and the Kd (Rantes (CCL5) [10]) was 51.8 nM. The Kd (Rantes (CCL5) [3]) was roughly 46 nM and the Kd (Rantes (CCL5) [4]) was roughly 48 nM.

B3: SZ218a = CCR5QTY(218a) (receptor)
chain: MDYQVSSPIYDINYYTSEPCQKINVKQIAARQQPPQYSQTYTFGFTGNMQTTQTQINCKRLKSMTDIYLQNQAISDQFFQQTTPFWAHYAAAQWDFGNTMCQQQTGQYFTGYYSGTYYTTQQLNTFQEFFGLNNCSSSNRLDQAMQTTETQGMTHCCINPTTYAYVGEKFRNYLLVFFQKHIAKRFCKCCSIFQQEAPERASSVYTRSTGEQEISVGL
modifications: labelled with the dye DY647P1 in the MST assay (site not stated)
notes: Dye-labelled in MST; fusion partner in yeast 2-hybrid not described; also called 5NA-43; CCR5_SZ218a DY647P1
With B3 the Kd (Rantes (CCL5) [11]) was 86.9 nM and 94.6 nM, the Kd (Rantes (CCL5) [12]) was roughly 75 nM and the Kd (Rantes (CCL5) [13]) was roughly 80 nM. For the same binder, the Kd (Rantes (CCL5) [14]) was 74.5 nM and 76.2 nM and the Kd (Rantes (CCL5) [15]) was 80.2 nM and 83.2 nM.
